From the supplement of paper PMC9170038

The sequences below were run on MS2 coat protein (assay: apparent KD of MS2 coat protein; higher = weaker reporter binding). Details: Eterna round: R107; input ligand: theophylline 2 mM.
Experimental: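 RNA-MaP round R107: designed RNA switches with theophylline, tryptophan, arginine or FMN aptamers are transcribed on-chip within common flanks. They are titrated with SNAP-549-labelled MS2 coat protein in RNA-MaP buffer (100 mM Tris pH 7.5, 80 mM KCl, 4 mM MgCl2), without ligand or with the indicated ligand. Median apparent KD per design.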
For “AUGCCUAGUGGAAGGAGCGAGGGUCUUCCCAACAUGAGGAUCACCCAUGUUCUUUUACACCCUCAGGUAGGUCGCCAUUGGGACA [Tilexete]”, the “apparent KD of MS2 coat protein” value was 47.6 nM. “AGAGUCAGACAAAAGUCUGGCUCAACCGAAGGAGCGUCCGAAAGGACAGGUAGGUCGCGGUUACCUGAGGAUCACCCGGGUUCCU [ArgAS 9 #OpenEnded #AlternativeMS2]” was tested, and the “apparent KD of MS2 coat protein” value was 1040 nM. With “GAUAGAACAAAAGUUUUAUCAGUGGGUGAACGAGGACCGGUACGGCCGCCACUCGGACAUGAGGAUCACCCAUGUCCAUGUGAAA [AstrosExyTryA#17]” the “apparent KD of MS2 coat protein” value was 19.5 nM. In the case of “AAUGAGUGGUGGUCAAGUGAUCCUCAUGAACGAGGACCGGUACGGCCGCCACUCGAUAACAUGAGGAUCACCCAUGUAAUAAUAA [|T'-M'-Trp-Ms2|_Design8]”, the “apparent KD of MS2 coat protein” value is reported as 22.4 nM. With “GAUAUGGAAACAUGUCAGAUCCUUACCGGUCGAGGACCGGUACGGCCGCCACUCGAAAAUAAUAAACAUGAGGAUCACCCAUGUA [Ex Tryptophan A 16]” the “apparent KD of MS2 coat protein” value was 17.5 nM. With “ACAUGAGGAUCACCCAUGUUGCUGACAGAAGGAGCGUGAUUAAGCACAGGUAGGUCGCUGUUGGUAUCGAGCGUUAGCUCGAUAC [SSArg A #8]” the “apparent KD of MS2 coat protein” value was 33.7 nM. For “GGAUAGGACAGAAGGAGCGACAUGGCGACGAAAGUCGGACCUUCACAUGAGGAUCACCCAUGUCAGGUAGGUCGCUGUCCUAUCG [ArgXB 6 #MS2Gate #StaticStem]”, the “apparent KD of MS2 coat protein” value was 52.4 nM. For “CUGACAUGAGGAUCACCCAUGUACACUGAAGGAGCGUCGAGAAUGACAGGUAGGUCGCAGAAUAAUAAUGGUGAUGUUUAGGUAA [Exclusion Arginine A GF 2]”, the “apparent KD of MS2 coat protein” value was 26.3 nM. For “UGUAUGGACUGAAGGAGCGGAAGAUAACCUGAGGAUCACCCGGGUAAUAAGGCGAAAGCCUUCCAGGUAGGUCGCAGUCCAUACU”, the “apparent KD of MS2 coat protein” value was 419 nM. With “CCGUCCCUCGGAAGGAGCGGCGCAAUGUAAGGGACCUUUUAUACAUGAGGAUCACCCAUGUGCCAGGUAGGUCGCCGAGAGCGUG [Erxeatge]” the “apparent KD of MS2 coat protein” value was 145 nM. “UAAUGCAUGACGGCCGCCACUAGAACAUGAGGAUCACCCAUGUACGGCGGCCGUCAUGGGUGGACUAGGACCGGGUCAUGCAUAU [(Trp1)-(Ms2)-(T)'-(M)'-(Trp2)_Design5]” was tested, and the “apparent KD of MS2 coat protein” value was 10.5 nM.

Same assay, conditions: Eterna round: R107; input ligand: tryptophan 2.4 mM
“ACGAUAGGACCUGAGGAACACCCAGGUGAUACCAGCCUGGAAACAGGCCCUUGGCAGCACCAAUACUCCAAUAACCUAUCGAAUA [TheoAX 12 #MicroSwitchBubble #AlternativeMS2]” was tested, and the “apparent KD of MS2 coat protein” value was 518 nM. “AAGACAUGAGGAUCACCCAUGUGUCAUGAAGGAGCGUCGGAAAUGACAGGUAGGUCGCAUGACCGUUGGCGCCGGAAACGGCGCA [SSAA #15]” was tested, and the “apparent KD of MS2 coat protein” value was 23.5 nM. For “CGGCCCUCACGUGAGGAUCACCCACGUGAUACCAGCCUGGAAACAGGCCCUUGGCAGCACUAGGUCAUCAAAGAUGACCAAGCCG [TheoAX 27 #OpenEnded #AlternativeMS2]”, the “apparent KD of MS2 coat protein” value was 11.3 nM. In the case of “ACGAUAGCACAAGAGGAUCACCCUUGUGAUACCAGCCUGGAAACAGGCCCUUGGCAGCACACAAAUAAAUUGUAACUAUCGAAUA [TheoAX5 #MicroSwitchBubble #AlternativeMS2]”, the “apparent KD of MS2 coat protein” value is reported as 29.3 nM. With “GGCCCUGCGGGCGCCCGCAGGGCCGCGGAUACCAGCGAGGUCCAUCGCCCUUGGCAGCCGAACAUGAGGAUCACCCAUGUCGGUG [Same State - Theophylline A Attempt #8 (HarryS)]” the “apparent KD of MS2 coat protein” value was 12.9 nM. In the case of “GGAUGAAACUGAAGGAGCGAGAACACAAGAAUGGGUCAAACAUGAGGAUCACCCAUGUAAUCUCAGGUAGGUCGCAGUAUCCCUU [Exclusion Arginine B GF 10]”, the “apparent KD of MS2 coat protein” value is reported as 36.6 nM. In the case of “AAGGAAAAGGCGGCCGCCACUGGAAAGGCGAAAGCCAAGAAAACAUGAGGAUCACCCAUGUCAUGUAGGACCGGGCCAAAAGGAA”, the “apparent KD of MS2 coat protein” value is reported as 23.7 nM. For “CCUCAAUAGACGGCCGCCACUGAAUCAUGCGGAUACAUGAGGAUCACCCAUGUGGGUGUGGUACGCAGGACCGGGUCAAGACCCG [#13 Same State - Tryptophan B]”, the “apparent KD of MS2 coat protein” value was 149 nM. In the case of “UGAUGGUACGGAAGGAGCGUGUAAGAACAAGAACAUGAGGAUCACCCAUGUAUUAAUUUAACACAGGUAGGUCGCCGUGUUAUUG [11.H]”, the “apparent KD of MS2 coat protein” value is reported as 16 nM. In the case of “AGGACGGUCGGAAGGAGCGGUACAUGAGGAUCACCCAUGUACUUCUGGGCAUCCGUAGAGUGCCAGGUAGGUCGCCGAUUGCGGG [XArg-B10]”, the “apparent KD of MS2 coat protein” value is reported as 12.9 nM. “UGUAUGUGAUCUGAUACCAGCUAAUAAGCUUGAGGAUCACCCAAGUGGAGCGGAAACGCAAGCCCUUGGCAGCAGAUCGCAUACU [Denovo 4 #StaticStem #AlternativeMS2]” was tested, and the “apparent KD of MS2 coat protein” value was 98.9 nM. For “GGACCAUGGAGCGAUACCAGCUUGAGUGUGCUGGCCAGGCACAUGAGGAUCACCCAUGUAAGCCCUUGGCAGCGCUCCAUGGUCC [#1 Exclusion - Theophylline B Attempt #26 (HarryS)]”, the “apparent KD of MS2 coat protein” value was 10.6 nM. For “AUCGCACCUGGUGAUACCAGCGUUUGCUCGCGACAUGAGGAUCACCCAUGUGGCCAGUGAUGCCCUUGGCAGCAUGGGCGGUGCA [Same State - Theophylline B (Freestyle 28)]”, the “apparent KD of MS2 coat protein” value was 349 nM. In the case of “CAAUCAAUCAAUCAAUCAAUCAACCAUGAAGGAGCGUGGGAAACCACAGGUAGGUCGCAUGGAAAACAUGAGGAUCACCCAUGUA [Casablanca]”, the “apparent KD of MS2 coat protein” value is reported as 29.2 nM. “GGUCUCUGGAGCGAUACCAGCUUAAUUGUACUGGCCAGGUACAUGAGGAUCACCCAUGUAAGCCCUUGGCAGCGCUCCAGAGACC [#1 Exclusion - Theophylline B Attempt #12 (HarryS)]” was tested, and the “apparent KD of MS2 coat protein” value was 11.6 nM. “AUAAGUGUAAGAUACCGCACGCUGGAGGAAGGAGCGCGGAUUAACGCAGGUAGGUCGCCUCGUACAUGAGGAUCACCCAUGUGGC [#14 Same State - Arginine A]” was tested, and the “apparent KD of MS2 coat protein” value was 35.2 nM. In the case of “AUGCCUAGUGGAAGGAGCGAGGGUCUUCCCAACAUGAGGAUCACCCAUGUUCUUUUACACCCUCAGGUAGGUCGCCAUUGGGACA [Tilexete]”, the “apparent KD of MS2 coat protein” value is reported as 82.8 nM. “AGAGUCAGACAAAAGUCUGGCUCAACCGAAGGAGCGUCCGAAAGGACAGGUAGGUCGCGGUUACCUGAGGAUCACCCGGGUUCCU [ArgAS 9 #OpenEnded #AlternativeMS2]” was tested, and the “apparent KD of MS2 coat protein” value was 659 nM. For “GAUAGAACAAAAGUUUUAUCAGUGGGUGAACGAGGACCGGUACGGCCGCCACUCGGACAUGAGGAUCACCCAUGUCCAUGUGAAA [AstrosExyTryA#17]”, the “apparent KD of MS2 coat protein” value was 43.9 nM. “GGUGAUCCGUGCUGCCGGAUCAUCGGUGAUACCAGCAUCGAAAGAUGCCCUUGGCAGCACCAACAUGAGGAUCACCCAUGUAAUA [(M)'-(T)'-(M)''-(T1)-(T2)-(M1)-(M2)_Design5]” was tested, and the “apparent KD of MS2 coat protein” value was 163 nM. With “CAUGAGAGAUUGUUUUGUGACUCUAACGAUACCAGAGUAGGACUUCUCCCUUGGCAGCGUGUGACAUGAGGAUCACCCAUGUCCA [theeternabot_exclusion_MS2_Theo_A_5]” the “apparent KD of MS2 coat protein” value was 11.3 nM. “AGCCCUGUACUAGAUACCAGCUACAUGAGGAUCACCCAUGUGCGUCAAGACUGACUGUGUAGCCCUUGGCAGCUGCUCGCAUGUA [Exclusion - Theophylline B (Freestyle 2)]” was tested, and the “apparent KD of MS2 coat protein” value was 20.9 nM. In the case of “UUAGAUAUGACGGAUACCAGCGUGUUGUAGAACAUGAGGAUCACCCAUGUAGUGAUCGAGCGCCCUUGGCAGCUGGUAUGUUUGG [7.T]”, the “apparent KD of MS2 coat protein” value is reported as 335 nM. For “ACAUGAGGAUCACCCAUGUUGCUGACAGAAGGAGCGUGAUUAAGCACAGGUAGGUCGCUGUUGGUAUCGAGCGUUAGCUCGAUAC [SSArg A #8]”, the “apparent KD of MS2 coat protein” value was 50 nM. In the case of “GGAUAGGACAGAAGGAGCGACAUGGCGACGAAAGUCGGACCUUCACAUGAGGAUCACCCAUGUCAGGUAGGUCGCUGUCCUAUCG [ArgXB 6 #MS2Gate #StaticStem]”, the “apparent KD of MS2 coat protein” value is reported as 46.1 nM. With “CUGACAUGAGGAUCACCCAUGUACACUGAAGGAGCGUCGAGAAUGACAGGUAGGUCGCAGAAUAAUAAUGGUGAUGUUUAGGUAA [Exclusion Arginine A GF 2]” the “apparent KD of MS2 coat protein” value was 23.4 nM. For “UGUAUGGACUGAAGGAGCGGAAGAUAACCUGAGGAUCACCCGGGUAAUAAGGCGAAAGCCUUCCAGGUAGGUCGCAGUCCAUACU”, the “apparent KD of MS2 coat protein” value was 250 nM. With “CCGUCCCUCGGAAGGAGCGGCGCAAUGUAAGGGACCUUUUAUACAUGAGGAUCACCCAUGUGCCAGGUAGGUCGCCGAGAGCGUG [Erxeatge]” the “apparent KD of MS2 coat protein” value was 140 nM. With “AAUAACAUGAGGAUCACCCAUGUAAAAGAUACCAGGGUGAUGAUCCUCCCUUGGCAGCUUACAGCUGAUCAAUAAGAUCGGCUGA [TheoAS #Tail #MS2BeforeAptamer #BothOrNeither]” the “apparent KD of MS2 coat protein” value was 184 nM.
